According to patent US20110070610:

B1: pACSH362 protease (SEQ ID NO:10 tagged HAV18 3C protease) (protein)
chain: MKVILLRDVPKIGKKGEIKEVSDGYARNYLIPRGFAKEYTEGLERAIKHEKEIEKRKKEREREESEKILKELKKRTHVVKVKAGEGGKIFGAVTAATVAEEISKTTGLKLDKRWFKLDKPIKELGEYSLEVSLPGGVKDTIKIRVEREESSSGSGSGSGSTLEIAGLVRKNLVQFGVGEKNGCVRWVMNALGVKDDWLLVPSHAYKFEKDYEMMEFYFNRGGTYYSISAGNVVIQSLDVGFQDVVLMKVPTIPKFRDITEHFIKKGDVPRALNRLATLVTTVNGTPMLISEGPLKMEEKATYVHKKNDGTTVDLTVDQAWRGKGEGLPGMCGGALVSSNQSIQNAILGIHVAGGNSILVAKLVTQEMFQNIDKKIESQ
B2: pACSH307 protease (SEQ ID NO:10 tagged TEV protease) (protein)
chain: MKVILLRDVPKIGKKGEIKEVSDGYARNYLIPRGFAKEYTEGLERAIKHEKEIEKRKKEREREESEKILKELKKRTHVVKVKAGEGGKIFGAVTAATVAEEISKTTGLKLDKRWFKLDKPIKELGEYSLEVSLPGGVKDTIKIRVEREESSSGSSGSSGSSGESLFKGPRDYNPISSTICHLTNESDGHTTSLYGIGFGPFIITNKHLFRRNNGTLLVQSLHGVFKVKNTTTLQQHLIDGRDMIIIRMPKDFPPFPQKLKFREPQREERICLVTTNFQTKSMSSMVSDTSCTFPSSDGIFWKHWIQTKDGQCGSPLVSTRDGFIVGIHSASNFTNTNNYFTSVPKNFMELLTNQEAQQWVSGWRLNADSVLWGGHKVFMVKPEEPFQPVKEATQLMN

Experiments:
[1] = molecular target: T1, pACSH360 fusion protein (S661 peptide with N-terminal SEQ ID NO:19 tag and HAV18 3C cleavage site linker)
T1 chain: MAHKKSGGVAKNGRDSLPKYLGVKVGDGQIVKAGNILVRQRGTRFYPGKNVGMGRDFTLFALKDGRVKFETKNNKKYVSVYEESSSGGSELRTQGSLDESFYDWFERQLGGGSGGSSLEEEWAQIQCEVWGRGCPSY

[2] = molecular target: T2, pACSH248 fusion protein (S661 peptide with N-terminal SEQ ID NO:19 tag and TEV cleavage site linker)
T2 chain: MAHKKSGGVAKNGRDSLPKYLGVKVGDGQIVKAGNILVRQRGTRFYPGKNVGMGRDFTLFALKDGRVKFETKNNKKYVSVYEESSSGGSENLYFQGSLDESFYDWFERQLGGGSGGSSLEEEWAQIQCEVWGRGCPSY

Protein	cleavage of fusion protein, LC-MS, 7 hours at 37° C., enzyme to substrate ratio 1:10 or 1:50 [1]	cleavage of fusion protein, LC-MS, 8 hours, enzyme to substrate ratio 1:1 [2]
B1	A fragment representing the released S661 peptide was observed for both ratios	
B2		after incubation for 8 hours with an enzyme to substrate ration of 1:1, the major part of the S661 peptide was released from the pACSH248 fusion protein
